The text below walks through data of article PMC5670239, “Structural basis for mutually exclusive co-transcriptional nuclear cap-binding complexes with either NELF-E or ARS2” (Nature Communications, 2017).

Data set [1] concerns the target T1, CBC (Homo sapiens, UniProt P52298).
T1 sequence (P52298 1-156): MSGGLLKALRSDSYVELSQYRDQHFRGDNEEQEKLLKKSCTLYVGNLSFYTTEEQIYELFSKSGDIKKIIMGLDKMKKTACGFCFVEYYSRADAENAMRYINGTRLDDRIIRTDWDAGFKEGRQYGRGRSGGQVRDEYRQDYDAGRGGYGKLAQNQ
T1 sequence (Q09161 20-790 partner): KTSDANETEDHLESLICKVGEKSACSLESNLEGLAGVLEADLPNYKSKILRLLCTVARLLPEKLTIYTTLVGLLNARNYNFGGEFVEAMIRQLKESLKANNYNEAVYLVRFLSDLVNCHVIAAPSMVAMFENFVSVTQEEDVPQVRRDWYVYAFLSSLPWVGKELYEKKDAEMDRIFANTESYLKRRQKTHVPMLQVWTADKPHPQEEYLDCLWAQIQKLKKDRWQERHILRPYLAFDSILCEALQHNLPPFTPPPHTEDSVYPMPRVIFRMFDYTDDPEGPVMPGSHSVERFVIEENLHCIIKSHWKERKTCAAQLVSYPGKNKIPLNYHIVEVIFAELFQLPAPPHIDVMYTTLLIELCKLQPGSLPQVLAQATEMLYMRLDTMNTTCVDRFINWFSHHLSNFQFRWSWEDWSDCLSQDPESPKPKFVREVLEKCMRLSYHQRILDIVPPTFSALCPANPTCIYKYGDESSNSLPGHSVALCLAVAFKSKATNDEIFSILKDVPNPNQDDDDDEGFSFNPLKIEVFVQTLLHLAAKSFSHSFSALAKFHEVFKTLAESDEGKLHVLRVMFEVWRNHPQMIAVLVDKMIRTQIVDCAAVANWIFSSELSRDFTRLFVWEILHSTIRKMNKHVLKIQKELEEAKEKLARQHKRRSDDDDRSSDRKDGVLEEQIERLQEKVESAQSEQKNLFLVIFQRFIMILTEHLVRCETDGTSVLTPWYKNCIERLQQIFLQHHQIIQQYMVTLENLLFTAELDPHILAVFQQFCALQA
The data set can be described thus: Size exclusion chromatography (gel filtration) co-elution with CBC, with m^7GTP. Type of data set: binding. The following applies: gel filtration with 500 µM m^7GTP, fractions analysed by SDS-PAGE. Here is the method:
Fig. 1 The interaction of CBC with ARS2 is enhanced in the presence of m^7GTP. a Schematic diagram of the domain structure of ARS2 based on ref. [26]. b Gel filtration chromatogram and Coomassie-stained SDS-PAGE of CBC-ARS2 in the presence and absence of m^7GTP. Purified recombinant CBC and ARS2^147–871 were mixed with (orange) or without (blue) 500 µM m^7GTP and subjected to gel filtration. Their elution profiles were overlaid (left) and single fractions analysed by SDS-PAGE (middle and right). Purified recombinant CBC and C-terminally truncated ARS2^147–845 were mixed with 500 µM m^7GTP and analysed in a similar way (bottom left). c ITC data and curve fit to derive the affinity of different ARS2 constructs for CBC. CBC or m^7GTP-CBC in the sample cell was titrated by ARS2. […] K D values and standard deviation represent the average from at least two independent experiments. d Sequence alignment of the C-terminus of ARS2. Conserved residues are highlighted in red. Figure made with ESPript[54]
Fig. 2 The interaction of CBC with NELF-E is enhanced in the presence of m^7GTP. a Schematic diagram of the domain structure of NELF-E. b Gel filtration chromatogram and Coomassie-stained SDS-PAGE of CBC-NELF-E in the presence and absence of m^7GTP. Purified recombinant CBC and NELF-E were mixed with (orange) or without (green) 500 µM m^7GTP and subjected to gel filtration. Their elution profiles were overlaid (left) and single fractions analysed by SDS-PAGE (middle and right). Purified recombinant CBC and NELF-E^244–360 were mixed together with 500 µM m^7GTP and similarly analysed (bottom left). c ITC data and curve fit to derive the affinity of different NELF-E constructs for CBC. CBC or m^7GTP-CBC in the sample cell was titrated by NELF-E^244–380 or NELF-E^360–380. The data were presented as described in the caption to Fig. 1c. d Sequence alignment of the C-terminus of NELF-E. Conserved residues are highlighted in red. Figure made with ESPript[54]
A general note: SEC sorts molecules by how far they enter the pores of the column.

Data set [2] has as its target T1, CBC. The data set can be described thus: ITC, binding to CBC without cap analogue. The following applies: ITC (MicroCal ITC200), 25 °C, 20 mM HEPES, 120 mM NaCl, 2 mM TCEP, pH 7.8, single-site fit; no cap analogue pre-bound; mean ± SD of at least two independent experiments; SD. The source says: (§1) hARS2 isoform-4 (871 residues, UniProt:Q9BXP5-4, also known as isoform-e, NP_001122326) constructs (residues 147–871, 147–845, 763–871, 763–845, 827–871) hNELF-E (NM_002904.5) (244–380, 244–360) and hPHAX (NM_032177.3) (1–394, 103–294, 103–308, 103–327) were cloned into pETM11 (EMBL). Full-length hNELF-E (1–380) was cloned into pFASTBac and CBP20 into pETM30. Primers used are given in Supplementary Table 2. All constructs were expressed in E. coli Rosetta 2 (Novagen), except full-length NELF-E and CBP80ΔNLS (CBP80 with residues 1–19 deleted[2]), which were expressed in High Five insect cells (Life Technology). Cells were harvested and lysed by sonication in lysis buffer containing 50 mM HEPES, pH 7.8, 300 mM NaCl, 10% (v/v) glycerol, 5 mM β-mercaptoethanol. Lysates were clarified by centrifugation and applied on an equilibrated Ni-sepharose column (GE Healthcare), washed with 20 mM imidazole in lysis buffer, and eluted with 300 mM imidazole in lysis buffer. While dialysing into 20 mM HEPES, pH 7.8, 120 mM NaCl, 10% (v/v) glycerol, 5 mM β-mercaptoethanol, the N-terminal 6-histidine-tag was cleaved with His-tagged Tobacco Etch Virus (TEV) protease overnight in a ratio 1:100 mg TEV per mg protein. The cleaved protein was further purified first on Ni-sepharose to remove TEV and then using an anion exchange column (HiTrap Q, GE Healthcare) followed if necessary by a Heparin column (GE Healthcare). In both cases a NaCl gradient from 50 to 800 mM in 20 mM HEPES 7.8, 0.5 mM tris(2-carboxyethyl)phosphine was used. To reconstitute the CBC heterodimer, cleared His-tagged CBP20 lysate was first immobilised on a Ni-sepharose column. After washing the column with lysis buffer, the cleared CBP80 lysate was applied to the column and further purification steps performed as described above. To remove the access of CBP20 the flow through of the Ni-column after TEV cleavage was loaded on an anion exchange column (HiTrap Q, GE Healthcare) and CBC eluted by a NaCl gradient as described above. In the text we refer to CBP80ΔNLS and CBP80ΔNLS-CBP20 as CBP80 and CBC, respectively. ARS2^845–871, NELF-E^354–380, and NELF-E^360–380 peptides, with or without FAM label at the N-terminus, were purchased from GenScript.
In general terms: Isothermal titration calorimetry measures the heat released or taken up as one component is titrated into another.

For data set [3], the target named is T2, m^7GTP-CBC (Homo sapiens, UniProt P52298+Q09161).
T2 construct: 6-histidine tag (pETM30 vector) (N, cleaved yes); made in house; host or cells: CBP20 in E. coli Rosetta 2; CBP80ΔNLS in High Five insect cells; heterodimer reconstituted on Ni-sepharose
T2 sequence (Q09161 20-790): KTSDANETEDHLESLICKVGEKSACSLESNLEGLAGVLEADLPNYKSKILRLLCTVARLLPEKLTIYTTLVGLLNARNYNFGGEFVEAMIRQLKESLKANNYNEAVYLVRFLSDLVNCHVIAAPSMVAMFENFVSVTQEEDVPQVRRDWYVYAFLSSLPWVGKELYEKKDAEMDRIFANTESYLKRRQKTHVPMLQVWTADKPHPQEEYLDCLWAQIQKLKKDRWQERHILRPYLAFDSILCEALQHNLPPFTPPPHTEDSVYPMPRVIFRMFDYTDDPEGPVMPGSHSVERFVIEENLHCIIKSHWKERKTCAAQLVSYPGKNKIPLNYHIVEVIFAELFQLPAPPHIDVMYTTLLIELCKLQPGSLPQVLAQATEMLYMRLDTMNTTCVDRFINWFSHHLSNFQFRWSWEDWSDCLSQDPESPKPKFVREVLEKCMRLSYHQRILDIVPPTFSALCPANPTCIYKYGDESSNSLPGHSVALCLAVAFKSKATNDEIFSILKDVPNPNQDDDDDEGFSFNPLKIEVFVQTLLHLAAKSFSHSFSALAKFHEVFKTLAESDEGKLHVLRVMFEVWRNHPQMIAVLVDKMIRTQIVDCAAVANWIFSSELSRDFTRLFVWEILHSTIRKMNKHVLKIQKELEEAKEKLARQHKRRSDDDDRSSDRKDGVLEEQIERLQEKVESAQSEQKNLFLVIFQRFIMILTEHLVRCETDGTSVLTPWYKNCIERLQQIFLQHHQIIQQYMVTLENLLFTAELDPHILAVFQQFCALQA
T2 sequence (P52298 1-156): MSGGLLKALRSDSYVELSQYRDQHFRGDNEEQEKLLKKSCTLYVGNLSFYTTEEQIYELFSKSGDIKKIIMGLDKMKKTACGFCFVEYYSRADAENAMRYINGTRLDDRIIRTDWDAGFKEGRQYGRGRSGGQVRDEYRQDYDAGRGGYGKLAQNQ
Description: ITC, binding to CBC in the presence of the cap analogue m^7GTP. Conditions: ITC, 25 °C, 20 mM HEPES, 120 mM NaCl, 2 mM TCEP, pH 7.8, CBC bound to m^7GTP, mean ± SD of at least two independent experiments.
Source text: as §1

B1: NELF-E 244–360: NELF-E fragment that lacks the last 20 residues (protein, UniProt P18615 244-360, looked up, fragment)
chain: GPFRRSDSFPERRAPRKGNTLYVYGEDMTPTLLRGAFSPFGNIIDLSMDPPRNCAFVTYEKMESADQAVAELNGTQVESVQLKVNIARKQPMLDAATGKSVWGSLAVQNSPKGCHRD
For B1, the “Interaction with CBC by SEC in the presence of m^7GTP” value in data set [1] is “no stable complex is observed by SEC”.

B2: PHAX 103–308: human PHAX residues 103–308 (protein, UniProt Q9H814 103-308, looked up, fragment)
chain: SQKPPVAGGKKINNIWGAVLQEQNQDAVATELGILGMEGTIDRSRQSETYNYLLAKKLRKESQEHTKDLDKELDEYMHGGKKMGSKEEENGQGHLKRKRPVKDRLGNRPEMNYKGRYEITAEDSQEKVADEISFRLQEPKKDLIARVVRIIGNKKAIELLMETAEVEQNGGLFIMNGSRRRTPGGVFLNLLKNTPSISEEQIKDIF
Turning to B2, binding in data set [2] was characterised by a dissociation constant (Kd) of 600 ± 140 nM.

B3: PHAX 103–294: human PHAX residues 103–294, minimal CBC binding region (protein, UniProt Q9H814 103-294, looked up, fragment)
chain: SQKPPVAGGKKINNIWGAVLQEQNQDAVATELGILGMEGTIDRSRQSETYNYLLAKKLRKESQEHTKDLDKELDEYMHGGKKMGSKEEENGQGHLKRKRPVKDRLGNRPEMNYKGRYEITAEDSQEKVADEISFRLQEPKKDLIARVVRIIGNKKAIELLMETAEVEQNGGLFIMNGSRRRTPGGVFLNLLK
For B3, the dissociation constant (Kd) – broadly, the constant that tells how readily two partners part at equilibrium – in data set [2] amounted to 850 ± 210 nM.

B4: ARS2^147–845: C-terminally truncated ARS2, residues 147–845 (protein, UniProt Q9BXP5 147-845, looked up, fragment)
chain: PVMKTFKEFLLSLDDSVDETEAVKRYNDYKLDFRRQQMQDFFLAHKDEEWFRSKYHPDEVGKRRQEARGALQNRLRVFLSLMETGWFDNLLLDIDKADAIVKMLDAAVIKMEGGTENDLRILEQEEEEEQAGKPGEPSKKEEGRAGAGLGDGERKTNDKDEKKEDGKQAENDSSNDDKTKKSEGDGDKEEKKEDSEKEAKKSSKKRNRKHSGDDSFDEGSVSESESESESGQAEEEKEEAEEALKEKEKPKEEEWEKPKDAAGLECKPRPLHKTCSLFMRNIAPNISRAEIISLCKRYPGFMRVALSEPQPERRFFRRGWVTFDRSVNIKEICWNLQNIRLRECELSPGVNRDLTRRVRNINGITQHKQIVRNDIKLAAKLIHTLDDRTQLWASEPGTPPLPTSLPSQNPILKNITDYLIEEVSAEEEELLGSSGGAPPEEPPKEGNPAEINVERDEKLIKVLDKLLLYLRIVHSLDYYNTCEYPNEDEMPNRCGIIHVRGPMPPNRISHGEVLEWQKTFEEKLTPLLSVRESLSEEEAQKMGRKDPEQEVEKFVTSNTQELGKDKWLCPLSGKKFKGPEFVRKHIFNKHAEKIEEVKKEVAFFNNFLTDAKRPALPEIKPAQPPGPAQILPPGLTPGLPYPHQTPQGLMPYGQPRPPILGYGAGAVRPAVPTGGPPYPHAPYGAGRGNYDAFRGQGGY
As for B4, the “Interaction with CBC by SEC in the presence of m^7GTP” value in data set [1] is recorded as “failed to bind”.

B5: ARS2 763–845: human ARS2 isoform 4 residues 763–845, lacks the C-terminal 27 amino acids (protein, UniProt Q9BXP5 763-845, looked up, fragment)
chain: PEIKPAQPPGPAQILPPGLTPGLPYPHQTPQGLMPYGQPRPPILGYGAGAVRPAVPTGGPPYPHAPYGAGRGNYDAFRGQGGY
modifications: isoform 4
notes: human ARS2 isoform 4 residues 763–845, lacks the C-terminal 27 amino acids
Take B5: the “K D” value in data set [3] is recorded as “failed to bind”.

B6: ARS2 763–871: human ARS2 isoform 4 residues 763–871, E. coli expressed (protein, UniProt Q9BXP5 763-871, looked up, fragment)
chain: PEIKPAQPPGPAQILPPGLTPGLPYPHQTPQGLMPYGQPRPPILGYGAGAVRPAVPTGGPPYPHAPYGAGRGNYDAFRGQGGYPGKPRNRMVRGDPRAIVEYRDLDAPD
modifications: isoform 4
notes: human ARS2 isoform 4 residues 763–871, E. coli expressed
For B6, the Kd in data set [3] (SD) amounted to 1000 ± 300 nM.
